Legend:
[1] = biological target: Muc16 on Muc16-positive OVCAR3 cells (UniProt Q8WXI7 1-14507, limits assumed); test: cell-based or functional assay
[2] = biological target: FolR1 (folate receptor alpha) on FolR1-positive KB or Igrov1 cells (UniProt P15328 25-234, limits assumed); test: cell-based or functional assay
Sequence of FolR1 (folate receptor alpha) on FolR1-positive KB or Igrov1 cells (P15328 25-234 limits assumed): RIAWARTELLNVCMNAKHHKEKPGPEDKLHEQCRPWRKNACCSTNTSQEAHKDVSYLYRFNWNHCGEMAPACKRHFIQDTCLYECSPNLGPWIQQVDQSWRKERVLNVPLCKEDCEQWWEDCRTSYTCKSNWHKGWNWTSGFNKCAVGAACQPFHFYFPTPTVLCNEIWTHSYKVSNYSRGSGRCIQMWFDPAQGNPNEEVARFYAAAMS

Binder | Cell Killing on OVCAR3 (Muc16+), EC50 [1] | Cell Killing on FolR1+ Igrov1 Cells, EC50 [2] [nM]
Conjugate 49: anti-MUC16 sofituzumab+ Compd 401/Compd 101 (sofituzumab HC:4x pAMF iADC, 70% TLR agonist, DAR 3.9) (antibody, human IgG1, kappa, V domains shown, pAMF at Y180 and F404 conjugated to a mixture of Compound 401 and Compound 101) VH: EVQLVESGGGLVQPGGSLRLSCAASGYSITNDYAWNWVRQAPGKGLEWVGYISYSGYTTYNPSLKSRFTISRDTSKNTLYLQMNSLRAEDTAVYYCARWTSGLDYWGQGTLVTVSS VL: DIQMTQSPSSLSASVGDRVTITCKASDLIHNWLAWYQQKPGKAPKLLIYGATSLETGVPSRFSGSGSGTDFTLTISSLQPEDFATYYCQQYWTTPFTFGQGTKVEIKR | 0.1 | 
Conjugate 1: anti-FolR1-Compd 101 ADC (FolRα antibody 1848-B10 ADC, DAR 4) (antibody, human IgG1, kappa, V domains shown, pAMF (para-azidomethyl-L-phenylalanine) at Y180 and F404 conjugated to Compound 101 (by Table 16; Tables 8 and 10 say Y180 and K42 sites)) VH: EVQLVESGGGLVQPGGSLRLSCAASGFNTTTKSIHWVRQAPGKGLEWVGEIYPRDGITDYADSVKGRFTISADTSKNTAYLQMNSLRAEDTAVYYCARGGWHWRSGYSYYLDYWGQGTLVTVSS VL: not shown |  | 0.03

From patent US20200405813A1 (SUTRO BIOPHARMA, published 2020)
